The test system of assay [1] is MxPPO. As to the kind of experiment: Herbicide tolerance test of MxPPO wild type and variants in PPO-deficient E. coli BT3(ΔPPO), growth on herbicide-containing LB agar. In kind it is cell-based, Myxococcus xanthus. Conditions: relative to MxPPO WT, dark; for Herbicide tolerance, flumioxazin: up to 1000 μM (FIGS. 21-22); for Herbicide tolerance, sulfentrazone: up to 4000 μM (FIGS. 23-24). Here is the method:
Then, the extent of tolerance was evaluated.

Assay [2] deals with MxPPO. As to the kind of experiment: PPO enzyme activity of purified MBP-fused MxPPO wild type and variants. In kind it is biochemical, Myxococcus xanthus. Conditions: PPO enzyme activity of purified MxPPO protein, relative to wild type.

B1: R95A + I168C + A170C + I311M + M365V: MxPPO (SEQ ID NO: 3) variant (protein)
chain: MHHMPRTTGMNVAVVGGGISGLAVAHHLRSRGTDAVLLESSARLGGAVGTHALAGYLVEQGPNSFLDREPATRALAAALNLEGRIRAADPAAKRAYVYTRGRLRSVPASPPAFLASDILPLGARLRVAGELFSRRAPEGVDESLAAFGRRHLGHRATQVLLDAVQTGCYCGDVEQLSVAATFPMLVKMEREHRSLILGAIRAQKAQRQAALPAGTAPKLSGALSTFDGGLQVLIDALAASLGDAAHVGARVEGLAREDGGWRLIIEEHGRRAELSVAQVVLAAPAHATAKLLRPLDDALAALVAGIAYAPMAVVHLGFDAGTLPAPDGFGFLVPAEEQRRMLGAIHASTTFPFRAEGGRVLYSCVVGGARQPGLVEQDEDALAALAREELKALAGVTARPSFTRVFRWPLGIPQYNLGHLERVAAIDAALQRLPGLHLIGNAYKGVGLNDCIRNAAQLADALVAGNTSHAP
modifications: Synthetic (Protoporphyrinogen IX oxidase (MxPPO) of Myxococcus xanthus)
On to B1, for which, in the assay on MxPPO [1], the “Herbicide tolerance, flumioxazin” value is on record as “+ (1-9 fold higher tolerance)” and the “Herbicide tolerance, sulfentrazone” value is reported as “+++ (100-999 fold higher tolerance)”. Besides, the “Activity (%)” value in the assay with MxPPO [2] worked out at 17%.

B2: R95A + I168C + L332T + M365I: MxPPO (SEQ ID NO: 3) variant (protein)
chain: MHHMPRTTGMNVAVVGGGISGLAVAHHLRSRGTDAVLLESSARLGGAVGTHALAGYLVEQGPNSFLDREPATRALAAALNLEGRIRAADPAAKRAYVYTRGRLRSVPASPPAFLASDILPLGARLRVAGELFSRRAPEGVDESLAAFGRRHLGHRATQVLLDAVQTGCYAGDVEQLSVAATFPMLVKMEREHRSLILGAIRAQKAQRQAALPAGTAPKLSGALSTFDGGLQVLIDALAASLGDAAHVGARVEGLAREDGGWRLIIEEHGRRAELSVAQVVLAAPAHATAKLLRPLDDALAALVAGIAYAPIAVVHLGFDAGTLPAPDGFGFTVPAEEQRRMLGAIHASTTFPFRAEGGRVLYSCIVGGARQPGLVEQDEDALAALAREELKALAGVTARPSFTRVFRWPLGIPQYNLGHLERVAAIDAALQRLPGLHLIGNAYKGVGLNDCIRNAAQLADALVAGNTSHAP
modifications: Synthetic (Protoporphyrinogen IX oxidase (MxPPO) of Myxococcus xanthus)
On to B2, for which, in the assay on MxPPO [1], the “Herbicide tolerance, flumioxazin” value is “+ (1-9 fold higher tolerance)” and the “Herbicide tolerance, sulfentrazone” value was “++ (10-99 fold higher tolerance)”. Further, in the assay with MxPPO [2], the “Activity (%)” value was determined as 34%.

B3: R95A + I168C + I311M + L332T + M365V: MxPPO (SEQ ID NO: 3) variant (protein)
chain: MHHMPRTTGMNVAVVGGGISGLAVAHHLRSRGTDAVLLESSARLGGAVGTHALAGYLVEQGPNSFLDREPATRALAAALNLEGRIRAADPAAKRAYVYTRGRLRSVPASPPAFLASDILPLGARLRVAGELFSRRAPEGVDESLAAFGRRHLGHRATQVLLDAVQTGCYAGDVEQLSVAATFPMLVKMEREHRSLILGAIRAQKAQRQAALPAGTAPKLSGALSTFDGGLQVLIDALAASLGDAAHVGARVEGLAREDGGWRLIIEEHGRRAELSVAQVVLAAPAHATAKLLRPLDDALAALVAGIAYAPMAVVHLGFDAGTLPAPDGFGFTVPAEEQRRMLGAIHASTTFPFRAEGGRVLYSCVVGGARQPGLVEQDEDALAALAREELKALAGVTARPSFTRVFRWPLGIPQYNLGHLERVAAIDAALQRLPGLHLIGNAYKGVGLNDCIRNAAQLADALVAGNTSHAP
modifications: Synthetic (Protoporphyrinogen IX oxidase (MxPPO) of Myxococcus xanthus)
As for B3, in the assay on MxPPO [1], the “Herbicide tolerance, flumioxazin” value is given as “+ (1-9 fold higher tolerance)” and the “Herbicide tolerance, sulfentrazone” value is “+++ (100-999 fold higher tolerance)”. Besides, in the assay with MxPPO [2], the “Activity (%)” value was 12%.

B4: R95A + I168C + I311M + M365V: MxPPO (SEQ ID NO: 3) variant (protein)
chain: MHHMPRTTGMNVAVVGGGISGLAVAHHLRSRGTDAVLLESSARLGGAVGTHALAGYLVEQGPNSFLDREPATRALAAALNLEGRIRAADPAAKRAYVYTRGRLRSVPASPPAFLASDILPLGARLRVAGELFSRRAPEGVDESLAAFGRRHLGHRATQVLLDAVQTGCYAGDVEQLSVAATFPMLVKMEREHRSLILGAIRAQKAQRQAALPAGTAPKLSGALSTFDGGLQVLIDALAASLGDAAHVGARVEGLAREDGGWRLIIEEHGRRAELSVAQVVLAAPAHATAKLLRPLDDALAALVAGIAYAPMAVVHLGFDAGTLPAPDGFGFLVPAEEQRRMLGAIHASTTFPFRAEGGRVLYSCVVGGARQPGLVEQDEDALAALAREELKALAGVTARPSFTRVFRWPLGIPQYNLGHLERVAAIDAALQRLPGLHLIGNAYKGVGLNDCIRNAAQLADALVAGNTSHAP
modifications: Synthetic (Protoporphyrinogen IX oxidase (MxPPO) of Myxococcus xanthus)
For B4, in the assay with MxPPO [1], the “Herbicide tolerance, flumioxazin” value was “+ (1-9 fold higher tolerance)” and the “Herbicide tolerance, sulfentrazone” value was “+++ (100-999 fold higher tolerance)”. Further, the “Activity (%)” value in the assay on MxPPO [2] worked out at 37%.

B5: I168C + A170C + I311M + L332T + M365V: MxPPO (SEQ ID NO: 3) variant (protein)
chain: MHHMPRTTGMNVAVVGGGISGLAVAHHLRSRGTDAVLLESSARLGGAVGTHALAGYLVEQGPNSFLDREPATRALAAALNLEGRIRAADPAAKRRYVYTRGRLRSVPASPPAFLASDILPLGARLRVAGELFSRRAPEGVDESLAAFGRRHLGHRATQVLLDAVQTGCYCGDVEQLSVAATFPMLVKMEREHRSLILGAIRAQKAQRQAALPAGTAPKLSGALSTFDGGLQVLIDALAASLGDAAHVGARVEGLAREDGGWRLIIEEHGRRAELSVAQVVLAAPAHATAKLLRPLDDALAALVAGIAYAPMAVVHLGFDAGTLPAPDGFGFTVPAEEQRRMLGAIHASTTFPFRAEGGRVLYSCVVGGARQPGLVEQDEDALAALAREELKALAGVTARPSFTRVFRWPLGIPQYNLGHLERVAAIDAALQRLPGLHLIGNAYKGVGLNDCIRNAAQLADALVAGNTSHAP
modifications: Synthetic (Protoporphyrinogen IX oxidase (MxPPO) of Myxococcus xanthus)
Consider B5, for which, in the assay with MxPPO [1], the “Herbicide tolerance, flumioxazin” value was “+ (1-9 fold higher tolerance)” and the “Herbicide tolerance, sulfentrazone” value was “++ (10-99 fold higher tolerance)”. Also, the “Activity (%)” value in the assay with MxPPO [2] amounted to 20%.

B6: R95A + I168C + A170C + I311M + L332T + M365V: MxPPO (SEQ ID NO: 3) variant (protein)
chain: MHHMPRTTGMNVAVVGGGISGLAVAHHLRSRGTDAVLLESSARLGGAVGTHALAGYLVEQGPNSFLDREPATRALAAALNLEGRIRAADPAAKRAYVYTRGRLRSVPASPPAFLASDILPLGARLRVAGELFSRRAPEGVDESLAAFGRRHLGHRATQVLLDAVQTGCYCGDVEQLSVAATFPMLVKMEREHRSLILGAIRAQKAQRQAALPAGTAPKLSGALSTFDGGLQVLIDALAASLGDAAHVGARVEGLAREDGGWRLIIEEHGRRAELSVAQVVLAAPAHATAKLLRPLDDALAALVAGIAYAPMAVVHLGFDAGTLPAPDGFGFTVPAEEQRRMLGAIHASTTFPFRAEGGRVLYSCVVGGARQPGLVEQDEDALAALAREELKALAGVTARPSFTRVFRWPLGIPQYNLGHLERVAAIDAALQRLPGLHLIGNAYKGVGLNDCIRNAAQLADALVAGNTSHAP
modifications: Synthetic (Protoporphyrinogen IX oxidase (MxPPO) of Myxococcus xanthus)
Take B6: in the assay with MxPPO [1], the “Herbicide tolerance, flumioxazin” value is on record as “+ (1-9 fold higher tolerance)” and the “Herbicide tolerance, sulfentrazone” value was “+++ (100-999 fold higher tolerance)”. In addition, in the assay with MxPPO [2], the “Activity (%)” value is 8%.

B7: R95A + A170C + I311M + M365V: MxPPO (SEQ ID NO: 3) variant (protein)
chain: MHHMPRTTGMNVAVVGGGISGLAVAHHLRSRGTDAVLLESSARLGGAVGTHALAGYLVEQGPNSFLDREPATRALAAALNLEGRIRAADPAAKRAYVYTRGRLRSVPASPPAFLASDILPLGARLRVAGELFSRRAPEGVDESLAAFGRRHLGHRATQVLLDAVQTGIYCGDVEQLSVAATFPMLVKMEREHRSLILGAIRAQKAQRQAALPAGTAPKLSGALSTFDGGLQVLIDALAASLGDAAHVGARVEGLAREDGGWRLIIEEHGRRAELSVAQVVLAAPAHATAKLLRPLDDALAALVAGIAYAPMAVVHLGFDAGTLPAPDGFGFLVPAEEQRRMLGAIHASTTFPFRAEGGRVLYSCVVGGARQPGLVEQDEDALAALAREELKALAGVTARPSFTRVFRWPLGIPQYNLGHLERVAAIDAALQRLPGLHLIGNAYKGVGLNDCIRNAAQLADALVAGNTSHAP
modifications: Synthetic (Protoporphyrinogen IX oxidase (MxPPO) of Myxococcus xanthus)
For the molecule B7, in the assay on MxPPO [1], the “Herbicide tolerance, flumioxazin” value was “+ (1-9 fold higher tolerance)” and the “Herbicide tolerance, sulfentrazone” value is on record as “+ (1-9 fold higher tolerance)”. Moreover, the “Activity (%)” value in the assay on MxPPO [2] is listed as 31%.

B8: R95A + I168C + A170C + L332T + M365I: MxPPO (SEQ ID NO: 3) variant (protein)
chain: MHHMPRTTGMNVAVVGGGISGLAVAHHLRSRGTDAVLLESSARLGGAVGTHALAGYLVEQGPNSFLDREPATRALAAALNLEGRIRAADPAAKRAYVYTRGRLRSVPASPPAFLASDILPLGARLRVAGELFSRRAPEGVDESLAAFGRRHLGHRATQVLLDAVQTGCYCGDVEQLSVAATFPMLVKMEREHRSLILGAIRAQKAQRQAALPAGTAPKLSGALSTFDGGLQVLIDALAASLGDAAHVGARVEGLAREDGGWRLIIEEHGRRAELSVAQVVLAAPAHATAKLLRPLDDALAALVAGIAYAPIAVVHLGFDAGTLPAPDGFGFTVPAEEQRRMLGAIHASTTFPFRAEGGRVLYSCIVGGARQPGLVEQDEDALAALAREELKALAGVTARPSFTRVFRWPLGIPQYNLGHLERVAAIDAALQRLPGLHLIGNAYKGVGLNDCIRNAAQLADALVAGNTSHAP
modifications: Synthetic (Protoporphyrinogen IX oxidase (MxPPO) of Myxococcus xanthus)
Turning to B8, in the assay on MxPPO [1], the “Herbicide tolerance, flumioxazin” value was “+ (1-9 fold higher tolerance)” and the “Herbicide tolerance, sulfentrazone” value is recorded as “+++ (100-999 fold higher tolerance)”. Also, in the assay with MxPPO [2], the “Activity (%)” value is reported as 18%.
